Measured values reported in patent US20180066058A1 (published 2018).
Each block holds one binder with its values, some of them ahead of it.

Legend:
[1] = target: T1, Human ICOS extracellular domain fused to human Fc (human, UniProt Q9Y6W8 21-140); assay: SPR (ProteOn XPR36), human ICOS ECD-Fc captured, Fab analyte, pH 5.5, 37 C; poor fit to 1:1 model
T1 construct: Dimeric protein made in house from NCBI NP_036224.1; also called hICOS; hICOS Fc; not shown: human Fc region
T1 sequence: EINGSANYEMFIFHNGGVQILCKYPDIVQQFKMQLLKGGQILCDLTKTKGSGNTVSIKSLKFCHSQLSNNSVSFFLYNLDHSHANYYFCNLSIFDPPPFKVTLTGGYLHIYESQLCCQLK
Protocol: (§1) In addition, a comparison was performed of antibody:antigen binding affinity at different pH values. As before, the dimeric human ICOS protein, presented as the extracellular domain of ICOS fused to a human Fc region, was captured on the anti-human Fc capture surface created using the 3 antibody cocktail, immobilised on the GLC biosensor chip by primary amine coupling. SPR analysis of recombinantly expressed anti-ICOS Fabs was carried out on the ProteOn XPR36 Array system (Biorad). The Fab fragments were used as analyte to generate binding sensorgrams, which were double referenced with a buffer injection (i.e., 0 nM). The subsequent referenced sensorgrams were fitted to the 1:1 model inherent to the ProteOn analysis software. […] Data were fitted to the 1:1 model.

[2] = target: T1, Human ICOS extracellular domain fused …; assay: SPR (ProteOn XPR36), Fc-tagged ICOS captured on anti-human IgG, Fab analyte, 25 C
Protocol: (§2) Fab affinities of the ICOS leads were generated by SPR using the ProteOn XPR3 6 (BioRad). An anti-human IgG capture surface was created on a GLC biosensor chip by primary amine coupling, immobilising three anti-human IgG antibodies (Jackson Labs 109-005-008, 109-006-008 and 309-006-008). […] Binding sensorgrams were double referenced using a buffer injection (i.e. 0 nM), and the data was fitted to the 1:1 model inherent to the ProteOn XPR36 analysis software. The assay was run at 25° C. and using HBS-EP as running buffer.

[3] = target: T1, Human ICOS extracellular domain fused …; assay: SPR (ProteOn XPR36), human ICOS ECD-Fc captured, Fab analyte, pH 7.4, 37 C; poor fit to 1:1 model
Protocol: as §1

[4] = target: T2, human ICOS-mFc (Chimerigen) (human, UniProt Q9Y6W8 21-140); assay: HTRF neutralisation of Alexa 647 human B7-H2 binding to human ICOS-mFc; human IgG1; mean, n = 4
T2 construct: also called human ICOS receptor; human ICOS Receptor; not shown: mouse Fc of the bought construct
T2 sequence: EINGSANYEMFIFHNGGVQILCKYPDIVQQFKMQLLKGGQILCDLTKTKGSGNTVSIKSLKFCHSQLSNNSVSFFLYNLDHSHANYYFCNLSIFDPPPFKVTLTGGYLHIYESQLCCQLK
Protocol: (§3) 5 μl of ICOS receptor (human ICOS-mFc, 20 nM, 5 nM final or mouse ICOS-mFc 4 nM, 1 nM final (Chimerigen)) was added to required wells. Plate was incubated for 1 hr at room temperature (RT).
(§4) Finally, 5 μl of anti-mouse IgG donor mAb (Southern Biotech) labelled with europium cryptate (Cis Bio), 40 nM, 10 nM final was added to each well and the assay was left in the dark at RT to incubate for a further 2 hours. After incubation, assay was read on Envision plate reader (Perkin Elmer) using a standard HTRF protocol. […] Titration curves and IC50 values [M] were plotted using Graphpad (Prism). IC50 values were calculated by first transforming the data using equation X=Log(X). The transformed data was then fitted using nonlinear regression, using fitting algorithm, log (inhibitor) vs. response—variable slope (four parameters).

[5] = target: T3, Human ICOS on cells (human, UniProt Q9Y6W8 21-199); assay: cell-based or functional assay
T3 sequence: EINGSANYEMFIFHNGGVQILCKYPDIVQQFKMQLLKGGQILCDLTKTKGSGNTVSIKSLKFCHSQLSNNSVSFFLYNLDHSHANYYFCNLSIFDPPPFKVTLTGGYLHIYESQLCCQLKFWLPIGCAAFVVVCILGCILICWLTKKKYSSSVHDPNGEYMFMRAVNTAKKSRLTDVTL

[6] = target: T3, Human ICOS on cells; assay: cell-based or functional assay; remark: listed apart in the source
[7] = target: T3, Human ICOS on cells; assay: flow cytometry on activated primary human pan T cells; naked hIgG1 detected with AF647 goat anti-human Fc
Protocol: Pan T-cells (CD3 cells) were isolated and cultured for 3 days with CD3/CD28 dynabeads (Thermofisher) to induce ICOS expression on their surface. […] Stained cells were ran on the Attune and staining intensity was presented as Mean of fluorescence intensity (MFI). EC50 was determined using GraphPad Prism.

[8] = target: T4, mouse ICOS-mFc (Chimerigen) (mouse, UniProt Q9WVS0 21-141, limits assumed); assay: HTRF neutralisation of Alexa 647 mouse B7-H2 binding to mouse ICOS-mFc; human IgG1; mean, n = 3
T4 construct: also called mouse ICOS receptor; mouse ICOS Receptor; not shown: mouse Fc of the bought construct
T4 sequence: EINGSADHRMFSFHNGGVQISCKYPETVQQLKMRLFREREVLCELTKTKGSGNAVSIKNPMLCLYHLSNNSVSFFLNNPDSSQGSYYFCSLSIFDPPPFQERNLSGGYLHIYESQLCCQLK
Protocol: as §3, §4

[9] = target: T3, Human ICOS on cells; assay: flow cytometry on activated human pan T cells (row Human), second donor column
[10] = target: T5, Cynomolgus ICOS on activated cynomolgus T cells (cynomolgus, UniProt Q9Y6W8 21-195 (human entry)); assay: flow cytometry, AF647 pre-labelled hIgG1 on activated cynomolgus pan T cells, donor 1
T5 construct: also called NHP ICOS
T5 chain: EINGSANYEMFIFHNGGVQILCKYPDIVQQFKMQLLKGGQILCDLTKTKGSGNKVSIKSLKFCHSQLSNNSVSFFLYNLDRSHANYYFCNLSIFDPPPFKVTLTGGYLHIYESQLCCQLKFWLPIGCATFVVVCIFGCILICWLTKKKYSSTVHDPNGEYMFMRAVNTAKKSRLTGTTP
Protocol: PBMC from whole blood of 2 Mauritian cynomolgus macaques (Wickham Laboratories) were isolated by gradient centrifugation and cultured for 3 days with CD2/CD3/CD28 MACSiBeads (Miltenyi) to induce ICOS expression on their surface. […] Cells were also labelled with V450-CD3 to assess staining on T-cell subsets. Stained cells were run on Attune (Thermofisher) and staining intensity was presented as mean fluorescence intensity (MFI). EC50 was determined using GraphPad Prism.

[11] = target: T3, Human ICOS on cells; assay: cell-based or functional assay; remark: listed apart in the source
[12] = target: T3, Human ICOS on cells; assay: flow cytometry on activated human pan T cells (row Human), first donor column
[13] = target: T6, Mouse ICOS extracellular domain fused to human Fc (mouse, UniProt Q9WVS0 21-141); assay: SPR (ProteOn XPR36), Fc-tagged ICOS captured on anti-human IgG, Fab analyte, 25 C
T6 construct: Made in house from NCBI NP_059508.2; also called mICOS; mICOS Fc; not shown: human Fc region
T6 sequence: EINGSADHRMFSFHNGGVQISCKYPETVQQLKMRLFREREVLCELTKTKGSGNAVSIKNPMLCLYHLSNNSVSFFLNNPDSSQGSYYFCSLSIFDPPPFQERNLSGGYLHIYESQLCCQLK
Protocol: as §2

[14] = target: T1, Human ICOS extracellular domain fused …; assay: SPR (ProteOn XPR36), human ICOS ECD-Fc captured, Fab analyte, pH 5.5, 37 C
Protocol: as §1

[15] = target: T1, Human ICOS extracellular domain fused …; assay: SPR (ProteOn XPR36), human ICOS ECD-Fc captured, Fab analyte, pH 7.6, 37 C
Protocol: as §1

[16] = target: T1, Human ICOS extracellular domain fused …; assay: SPR (ProteOn XPR36), human ICOS ECD-Fc captured, Fab analyte, pH 5.5, 37 C (second run)
Protocol: as §1

[17] = target: T1, Human ICOS extracellular domain fused …; assay: SPR (ProteOn XPR36), human ICOS ECD-Fc captured, Fab analyte, pH 7.4, 37 C
Protocol: as §1

[18] = target: T1, Human ICOS extracellular domain fused …; assay: SPR (ProteOn XPR36), human ICOS ECD-Fc captured, Fab analyte, pH 7.6, 25 C

Kd [1]: 4.17 nM
Kd [2]: 1070 nM
Kd [3]: 223 nM
B1: STIM002 Fab (Fab, V domains shown)
VH: QVQLVQSGGEVKKPGASVKVSCKASGYTFTSYGFSWVRQAPGQGLEWMGWISAYNGNTNYAQKLQGRVTMTTDTSTSTAYMELRSLRSDDTAVYYCARSTYFYGSGTLYGMDVWGQGTTVTVSS
VL: DIVMTQSPLSLPVTPGEPASISCRSSQSLLHSDGYNYLDWYLQKPGQSPQLLIYLGSTRASGFPDRFSGSGSGTDFTLKISRVEAEDVGVYYCMQALQTPLSFGQGTKLEIK
notes: Recombinantly expressed purified Fab

IC50 [4]: 2.2 nM
EC50 (Molar unit), NK primary cells ADCC assay on MJ cells, 2 hour time point, Donor 1 [5]: 0.121 nM
EC50 (Molar unit), NK primary cells ADCC assay on MJ cells, 2 hour time point, Donor 2 [5]: 0.529 nM
EC50 (Molar unit), NK primary cell ADCC assay on MJ cells, 2 hour time point, Donor 1 [6]: 0.121 nM
EC50 (Molar unit), NK primary cell ADCC assay on MJ cells, 2 hour time point, Donor 2 [6]: 0.529 nM
EC50 (Molar unit), NK primary cell ADCC assay on MJ cells, 2 hour time point, Donor 3 [6]: 2.92 nM
EC50 [7]: 17 nM
IC50 [8]: 6.5 nM
EC50 [9]: 121 nM
EC50 [10]: 222 nM
EC50 (Molar unit), NK primary cell ADCC assay on ICOS-transfected CCRF-CEM cells, 4 hour time point, Donor 4 [11]: 0.00392 nM
EC50 (Molar unit), NK primary cell ADCC assay on ICOS-transfected CCRF-CEM cells, 4 hour time point, Donor 5 [11]: 0.00395 nM
EC50 (Molar unit), NK primary cell ADCC assay on ICOS-transfected CCRF-CEM cells, 4 hour time point, Donor 6 [11]: 0.00375 nM
EC50 [12]: 221 nM
B2: STIM001 human IgG1 (antibody, V domains shown)
VH: QVQVVQSGAEVKKPGASVKVSCKASGYTFSTFGITWVRQAPGQGLEWMGWISAYNGDTNYAQNLQGRVIMTTDTSTSTAYMELRSLRSDDTAVYYCARSSGHYYYYGMDVWGQGTTVTVSS
VL: DIVMTQSPLSLPVTPGEPASISCRSSQSLLHSNEYNYLDWYLQKPGQSPQLLIFLGSNRASGVPDRFSGSGSGTDFTLKITRVEAEDVGIYYCMQSLQTPLTFGGGTKVEIKR
notes: Human IgG1 format; Conjugated with AF647 in the direct staining assays, coupled to beads or plates in the MJ cell assays; also called STIM001 (hIgG1); STIM001 hIgG1

Kd [13]: 407 nM
Kd [2]: 44 nM
Kd [14]: 73.1 nM
Kd [15]: 42.6 nM
Kd [16]: 80.3 nM
Kd [17]: 63.5 nM
Kd [18]: 44 nM
B3: STIM001 Fab (Fab, V domains shown)
VH: QVQVVQSGAEVKKPGASVKVSCKASGYTFSTFGITWVRQAPGQGLEWMGWISAYNGDTNYAQNLQGRVIMTTDTSTSTAYMELRSLRSDDTAVYYCARSSGHYYYYGMDVWGQGTTVTVSS
VL: DIVMTQSPLSLPVTPGEPASISCRSSQSLLHSNEYNYLDWYLQKPGQSPQLLIFLGSNRASGVPDRFSGSGSGTDFTLKITRVEAEDVGIYYCMQSLQTPLTFGGGTKVEIK
notes: as for B1
